Experimental findings from patent US20220341931A1 are described below.

Assay [1] addresses Human Metapneumovirus (hMPV) B Glycoprotein G, His-Tag (HEK293) (Native Antigen Company #REC31948-10 (Human Metapneumovirus (hMPV) B)).
In assay [2] the target is Human cytomegalovirus (HCMV) Glycoprotein B/gB Protein (His Tag) (Sino Biological 10202-V08H1), as b (Human cytomegalovirus (HCMV)).
For assay [3], the target named is Influenza B [B/Washington/02/2019 (B/Victoria lineage)-like virus] Hemagglutinin (HA), His-Tag (Nati (Influenza B [B/Washington/02/2019 (B/Victoria lineage)-like virus])).
Assay [4] deals with Varicella-Zoster Virus Heterodimer gE/gI (HEK293), His-tag (Native Antigen Company #REC31907-100), a (Varicella-Zoster Virus) (UniProt P09259).
Chain of UniProt P09259 (P09259 31-538 limits assumed, chain 1 of 2): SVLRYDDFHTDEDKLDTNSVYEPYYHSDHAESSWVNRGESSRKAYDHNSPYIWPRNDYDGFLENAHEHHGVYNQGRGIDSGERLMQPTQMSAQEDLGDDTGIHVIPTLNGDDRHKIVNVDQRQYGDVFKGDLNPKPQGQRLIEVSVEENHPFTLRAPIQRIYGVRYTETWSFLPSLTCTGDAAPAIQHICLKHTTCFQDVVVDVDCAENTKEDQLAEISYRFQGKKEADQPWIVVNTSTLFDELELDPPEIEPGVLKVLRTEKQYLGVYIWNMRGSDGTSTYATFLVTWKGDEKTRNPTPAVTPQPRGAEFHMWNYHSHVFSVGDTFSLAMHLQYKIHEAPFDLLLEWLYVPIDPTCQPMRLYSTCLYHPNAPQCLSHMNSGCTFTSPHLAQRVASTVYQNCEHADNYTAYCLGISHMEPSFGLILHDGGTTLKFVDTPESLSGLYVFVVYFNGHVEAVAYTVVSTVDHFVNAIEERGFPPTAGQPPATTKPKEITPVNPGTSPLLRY
Chain of UniProt P09259 (P09258 18-295 limits assumed, chain 2 of 2, further chain): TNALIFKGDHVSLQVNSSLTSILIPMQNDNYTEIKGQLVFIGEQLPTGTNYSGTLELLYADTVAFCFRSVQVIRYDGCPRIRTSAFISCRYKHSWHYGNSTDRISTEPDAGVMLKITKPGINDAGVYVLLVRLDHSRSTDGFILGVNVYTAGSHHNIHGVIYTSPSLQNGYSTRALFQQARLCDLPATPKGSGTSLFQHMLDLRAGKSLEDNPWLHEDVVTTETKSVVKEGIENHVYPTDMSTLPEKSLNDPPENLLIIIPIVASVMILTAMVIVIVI
For assay [5], the target named is Epstein-Barr virus (Herpesvirus 4) EBV Glycoprotein gp350/EBV GP350 Protein (His Tag) (Sino Biologic (Epstein-Barr virus (Herpesvirus 4)) (UniProt P03200)).
Chain of UniProt P03200 (P03200 1-470): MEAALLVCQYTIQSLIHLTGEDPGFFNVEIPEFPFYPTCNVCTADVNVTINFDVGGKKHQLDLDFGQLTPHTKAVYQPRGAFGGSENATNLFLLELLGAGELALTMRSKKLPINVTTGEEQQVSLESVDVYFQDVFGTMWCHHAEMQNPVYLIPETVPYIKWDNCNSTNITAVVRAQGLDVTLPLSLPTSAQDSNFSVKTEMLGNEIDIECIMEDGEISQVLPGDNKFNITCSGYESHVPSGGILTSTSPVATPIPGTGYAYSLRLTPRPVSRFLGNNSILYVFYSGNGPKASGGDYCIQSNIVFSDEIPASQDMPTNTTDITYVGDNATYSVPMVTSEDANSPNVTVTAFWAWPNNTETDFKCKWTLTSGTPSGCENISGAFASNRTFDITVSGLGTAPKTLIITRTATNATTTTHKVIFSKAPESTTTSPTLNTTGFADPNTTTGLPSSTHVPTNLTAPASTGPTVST
The target of assay [6] is SARS-CoV-2 (2019-nCoV) Spike S1-His Recombinant Protein (Sino Biological Cat: 40591-VO8H), as barcode-linked antigen (SARS-CoV-2 (2019-nCoV)) (UniProt P0DTC2).
Assay [7] shares this target. The source holds these as a separate data set.

In the case of “SARS-CoV-2 (2019-nCoV) Nucleocapsid Antibody, Rabbit MAb (Sino Biological Cat: 40143-R019)”, the barcode sequence counts (hMPV) in assay [1] is 201 counts. Also, the barcode sequence counts (HCMV) in assay [2] amounted to 836 counts. This substance yielded a barcode sequence counts (FLU B) in assay [3] of 185 counts. In assay [4], the barcode sequence counts (VZV) amounted to 200 counts. The barcode sequence counts (EBV) in assay [5] came out at 1080 counts. Also, the barcode sequence counts (COVID Spike) in assay [6] stood at 900 counts. Moreover, the Spike #/Nuc # in assay [7] worked out at 0.291.
